In article PMC10153361, “Mechanism of imidazole inhibition of a GH1 β‐glucosidase” (FEBS Open Bio, 2023) one finds Km and kcat data, which are given here for one protein.

As usually defined, the Km is the substrate concentration at which the rate is half of its maximum. Broadly, the kcat is the maximal rate divided by the concentration of active sites.

Substrate in the data set: O=[N+]([O-])c1ccc(O[C@@H]2O[C@H](CO)[C@@H](O)[C@H](O)[C@H]2O)cc1
The data set can be described thus: purified protein. Type of data set: biochemical, Spodoptera frugiperda. The note with it: 100 mM phosphate pH 6.0, 30 °C.

B1: Sfβgly (GH1 β-glucosidase from Spodoptera frugiperda) (Spodoptera frugiperda) (protein)
chain: QQRRFPDDFLFGTATASYQIEGAWDEDGKGENIWDYMVHNTPEVIRDLSNGDIAADSYHNYKRDVEMMRELGLDAYRFSLSWARILPTGMANEVNPAGIAFYNNYIDEMLKYNITPLITLYHWDLPQKLQELGGFANPLISDWFEDYARVVFENFGDRVKMFITFNEPREICFEGYGSATKAPILNATAMGAYLCAKNLVTAHAKAYYLYDREFRPVQGGQCGITISVNWFGPATPTPEDEMAAELRRQGEWGIYAHPIFSAEGGFPKELSDKIAEKSAQQGYPWSRLPEFTEEEKAFVRGTSDLIGVNHYTAFLVSATERKGPYPVPSLLDDVDTGSWADDSWLKSASAWLTLAPNSIHTALTHLNNLYNKPVFYITENGWSTDESRENSLIDDDRIQYYRASMESLLNCLDDGINLKGYMAWSLMDNFEWMEGYIERFGLYEVDFSDPARTRTPRKAAFVYKHIIKHRVVDYEYEPETMVMTIDEGH
notes: recombinant, E. coli BL21(DE3), vector pET46, Ni-NTA purified; secreted digestive midgut enzyme; catalytic residues E187 and E399
B1: the Michaelis constant (Km) came to 1730 ± 40 µM and the kcat was 1.33 ± 0.333 s⁻¹.
